# Laboratory results reported in patent US7700101B2, “Reagents and method for modulating Dkk-mediated interactions” (Wyeth, priority 2001, dated 2010).
# B1: D11: Dkk-1 fragment clone F3/R2: Val 139-Cys245 (protein)
# chain: VSSDQNHFRGEIEETITESFGNDHSTLDGYSRRTTLSSKMYHTKGQEGSVCLRSSDCASGLCCARHFWSKICKPVLKEGQVCTKHRRKGSHGLEIFQRCYCGEGLSC
# modifications: left off: large carriers
# B2: Dkk-2: human Dickkopf-2, Dkk family member, full length cDNA (protein, UniProt Q9UBU2 1-259, looked up)
# chain: MAALMRSKDSSCCLLLLAAVLMVESSQIGSSRAKLNSIKSSLGGETPGQAANRSAGMYQGLAFGGSKKGKNLGQAYPCSSDKECEVGRYCHSPHQGSSACMVCRRKKKRCHRDGMCCPSTRCNNGICIPVTESILTPHIPALDGTRHRDRNHGHYSNHDLGWQNLGRPHTKMSHIKGHEGDPCLRSSDCIEGFCCARHFWTKICKPVLHQGEVCTKQRKKGSHGLEIFQRCDCAKGLSCKVWKDATYSSKARLHVCQKI
# modifications: full-length
# notes: human Dickkopf-2, Dkk family member, full length cDNA
# B3: Wnt5a: murine Wnt5a cDNA clone, RNA injected (protein, UniProt P22725 62-380, looked up)
# Protein Wnt-5a: IIGAQPLCSQLAGLSQGQKKLCHLYQDHMQYIGEGAKTGIKECQYQFRHRRWNCSTVDNTSVFGRVMQIGSRETAFTYAVSAAGVVNAMSRACREGELSTCGCSRAARPKDLPRDWLWGGCGDNIDYGYRFAKEFVDARERERIHAKGSYESARILMNLHNNEAGRRTVYNLADVACKCHGVSGSCSLKTCWLQLADFRKVGDALKEKYDSAAAMRLNSRGKLVQVNSRFNSPTTQDLVYIDPSPDYCVRNESTGSLGTQGRLCNKTSEGMDGCELMCCGRGYDQFKTVQTERCHCKFHWCCYVKCKKCTEIVDQFVCK
# Assays:
# [1] = test system: Zmax1/LRP5 ligand binding domain (LBD) baits LBD1 and LBD4; experiment: Yeast two hybrid minimum interaction domain mapping of Dkk-1 with LRP5; settings: FIG. 6
# Sequence of Zmax1/LRP5 ligand binding domain (LBD) baits LBD1 and LBD4 (as listed by the source): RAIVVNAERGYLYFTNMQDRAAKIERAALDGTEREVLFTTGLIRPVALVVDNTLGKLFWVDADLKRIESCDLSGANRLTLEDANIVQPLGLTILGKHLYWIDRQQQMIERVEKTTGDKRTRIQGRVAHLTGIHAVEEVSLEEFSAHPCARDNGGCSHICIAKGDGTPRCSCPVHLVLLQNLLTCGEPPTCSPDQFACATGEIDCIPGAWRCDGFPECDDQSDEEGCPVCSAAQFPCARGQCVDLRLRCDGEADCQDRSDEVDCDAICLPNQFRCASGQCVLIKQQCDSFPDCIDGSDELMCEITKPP
# Excerpt: Further analysis of yeast two hybrid (Y2H) interacting proteins includes the dissection of protein motifs responsible for the interaction. Sequence alignment of multiple clones identified in the Y2H screens can help identify the smallest common region responsible for the interaction. In the absence of appropriate clones, deletion mapping of interacting domains is necessary.
# PCR primers containing restriction sites suitable for cloning are designed to cover multiple sub-domains of the protein of interest (bait or prey). The methods involved in cloning, sequencing, yeast transformation, mating, and scoring of interactions are readily performed by one of ordinary skill in the art of molecular biology and genetic engineering.
# The primers, which are presented in 5′ to 3′ orientation, were as follows: […]
# PCR was performed using PfuTurbo® polymerase (Stratagene). The PCR products were gel purified, digested with SaflI/NotI and ligated to pPC86 (Gibco/BRL) which had been linearized with SalI/NotI.
# These clones were transformed into yeast and mated with each of three yeast strains containing pDBleu (Gibco/BRL), pDBleuLBD1, and pDBleuLBD4. Positive interactions were detected by growth of the hybrids on appropriate selective media.
# [2] = target: T1, LRP6 (Homo sapiens, UniProt O75581); experiment: TCF-luciferase assay in HOB-03-CE6 cells, LRP6; format: cell-based; design: Full length LRP6 was isolated from the pED6dpc4 vector; expressed in transfected cells; host or cells: HOB-03-CE6 osteoblastic cells; U2OS osteosarcoma cells; HEK293
# Target sequence in this assay (O75581 20-1613): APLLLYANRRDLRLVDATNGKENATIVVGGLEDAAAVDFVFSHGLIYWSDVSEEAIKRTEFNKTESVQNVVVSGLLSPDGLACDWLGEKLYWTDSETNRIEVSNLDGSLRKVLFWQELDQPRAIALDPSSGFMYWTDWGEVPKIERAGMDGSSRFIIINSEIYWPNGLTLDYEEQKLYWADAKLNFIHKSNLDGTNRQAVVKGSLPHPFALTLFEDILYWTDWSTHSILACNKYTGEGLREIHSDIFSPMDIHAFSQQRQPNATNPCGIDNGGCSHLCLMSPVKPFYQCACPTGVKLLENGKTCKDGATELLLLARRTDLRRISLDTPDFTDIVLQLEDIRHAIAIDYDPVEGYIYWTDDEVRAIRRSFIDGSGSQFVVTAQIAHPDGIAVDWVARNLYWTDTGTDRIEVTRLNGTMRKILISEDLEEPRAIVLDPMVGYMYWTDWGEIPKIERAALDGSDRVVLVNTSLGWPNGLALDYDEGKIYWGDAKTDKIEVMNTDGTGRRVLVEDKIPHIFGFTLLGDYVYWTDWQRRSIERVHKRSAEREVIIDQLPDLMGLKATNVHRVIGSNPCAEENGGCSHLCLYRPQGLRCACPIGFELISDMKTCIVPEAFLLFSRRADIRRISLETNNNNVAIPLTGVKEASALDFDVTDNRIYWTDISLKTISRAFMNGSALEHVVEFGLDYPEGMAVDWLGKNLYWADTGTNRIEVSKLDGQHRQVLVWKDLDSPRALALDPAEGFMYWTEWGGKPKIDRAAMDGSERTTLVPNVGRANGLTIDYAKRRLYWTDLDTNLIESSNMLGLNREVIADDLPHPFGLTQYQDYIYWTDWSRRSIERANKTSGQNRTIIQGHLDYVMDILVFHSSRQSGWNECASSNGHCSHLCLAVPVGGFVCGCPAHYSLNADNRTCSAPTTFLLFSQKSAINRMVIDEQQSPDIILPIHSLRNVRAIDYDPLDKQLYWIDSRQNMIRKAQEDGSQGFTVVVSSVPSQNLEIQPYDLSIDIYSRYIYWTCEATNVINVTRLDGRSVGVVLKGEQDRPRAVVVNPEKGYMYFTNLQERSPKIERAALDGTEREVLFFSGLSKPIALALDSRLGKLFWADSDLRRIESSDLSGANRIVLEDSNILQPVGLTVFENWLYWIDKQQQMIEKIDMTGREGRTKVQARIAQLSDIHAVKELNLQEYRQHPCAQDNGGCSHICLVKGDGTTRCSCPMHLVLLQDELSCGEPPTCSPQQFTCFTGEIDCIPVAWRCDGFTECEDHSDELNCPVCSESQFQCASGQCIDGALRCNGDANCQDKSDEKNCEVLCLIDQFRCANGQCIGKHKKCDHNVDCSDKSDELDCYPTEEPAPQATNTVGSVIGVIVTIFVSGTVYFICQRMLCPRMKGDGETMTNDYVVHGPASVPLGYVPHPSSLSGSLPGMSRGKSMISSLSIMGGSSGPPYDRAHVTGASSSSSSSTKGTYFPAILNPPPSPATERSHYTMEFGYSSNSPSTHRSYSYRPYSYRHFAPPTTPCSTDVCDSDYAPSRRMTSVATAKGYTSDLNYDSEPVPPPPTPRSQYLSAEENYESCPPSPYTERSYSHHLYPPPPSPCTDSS
# [3] = target: T1, LRP6; settings: Mao et al.; classical biochemical ligand-receptor studies; cited from earlier work
# Target sequence in this assay (O75581 20-1613, species assumed): as the sequence (O75581 20-1613) above
# [4] = target: T2, HBM (Homo sapiens, UniProt O75197, G171V); experiment: TCF-luciferase assay in HOB-03-CE6 cells, HBM; format: cell-based; settings: Wnt3a, FIG. 15
# T2 construct: Full length Zmax/LRP5 and HBM ORF cDNA; expressed in transfected cells; host or cells: HOB-03-CE6 osteoblastic cells; U2OS osteosarcoma cells; HEK293
# T2 sequence (O75197 32-1615 G171V): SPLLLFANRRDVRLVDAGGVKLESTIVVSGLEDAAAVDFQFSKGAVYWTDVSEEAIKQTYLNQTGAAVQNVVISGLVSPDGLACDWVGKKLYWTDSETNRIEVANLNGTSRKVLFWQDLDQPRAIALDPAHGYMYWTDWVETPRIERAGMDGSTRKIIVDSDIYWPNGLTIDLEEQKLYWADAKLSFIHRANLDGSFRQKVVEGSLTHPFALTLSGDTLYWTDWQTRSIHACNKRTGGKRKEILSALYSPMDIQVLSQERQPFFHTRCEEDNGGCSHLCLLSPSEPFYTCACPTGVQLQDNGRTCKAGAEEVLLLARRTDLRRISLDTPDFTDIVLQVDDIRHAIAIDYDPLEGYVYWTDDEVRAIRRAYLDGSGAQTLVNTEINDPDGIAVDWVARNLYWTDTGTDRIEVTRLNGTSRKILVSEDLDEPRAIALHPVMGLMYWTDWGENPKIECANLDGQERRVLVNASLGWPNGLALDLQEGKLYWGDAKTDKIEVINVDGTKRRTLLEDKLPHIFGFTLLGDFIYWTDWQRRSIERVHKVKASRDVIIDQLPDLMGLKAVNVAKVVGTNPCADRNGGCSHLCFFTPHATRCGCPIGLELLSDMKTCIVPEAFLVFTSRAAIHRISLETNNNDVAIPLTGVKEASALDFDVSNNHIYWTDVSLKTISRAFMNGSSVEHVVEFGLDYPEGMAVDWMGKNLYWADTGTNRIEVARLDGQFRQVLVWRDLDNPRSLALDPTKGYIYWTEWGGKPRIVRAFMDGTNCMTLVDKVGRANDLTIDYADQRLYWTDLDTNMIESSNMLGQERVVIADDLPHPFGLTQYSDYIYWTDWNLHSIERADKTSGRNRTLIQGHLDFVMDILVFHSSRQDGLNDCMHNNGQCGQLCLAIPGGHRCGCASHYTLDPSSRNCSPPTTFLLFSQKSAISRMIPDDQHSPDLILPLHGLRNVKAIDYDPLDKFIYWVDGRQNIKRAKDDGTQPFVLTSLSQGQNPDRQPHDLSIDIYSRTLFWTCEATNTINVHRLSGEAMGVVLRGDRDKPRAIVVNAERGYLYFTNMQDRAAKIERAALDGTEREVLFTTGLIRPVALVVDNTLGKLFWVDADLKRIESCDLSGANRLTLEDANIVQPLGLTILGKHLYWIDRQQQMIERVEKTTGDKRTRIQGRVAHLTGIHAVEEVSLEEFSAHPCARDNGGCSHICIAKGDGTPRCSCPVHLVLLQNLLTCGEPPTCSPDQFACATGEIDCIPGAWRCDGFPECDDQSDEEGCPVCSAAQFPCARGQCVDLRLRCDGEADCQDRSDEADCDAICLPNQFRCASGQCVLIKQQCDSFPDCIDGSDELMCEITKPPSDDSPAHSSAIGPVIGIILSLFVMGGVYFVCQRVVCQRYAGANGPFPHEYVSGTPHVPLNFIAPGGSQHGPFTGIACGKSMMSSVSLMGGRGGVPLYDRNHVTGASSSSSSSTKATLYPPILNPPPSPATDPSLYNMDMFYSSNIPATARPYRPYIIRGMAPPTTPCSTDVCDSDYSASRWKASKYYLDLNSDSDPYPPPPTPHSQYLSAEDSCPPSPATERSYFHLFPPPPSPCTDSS
# Protocol: (§1) HOB-03-CE6 osteoblastic cells developed by Wyeth Ayerst (Philadelphia, Pa.) were seeded into 24-well plates at 150,000 cells per well in 1 ml of the growth media (D-MEM/F12 phenol red-free) containing 10% (v/v) heat-inactivated FBS, 1×penicillin streptomycin, and 1X Glutamax-1, and incubated overnight at 34° C. The following day, the cells were transfected using Lipofectamine 2000® (as described by the manufacturer, Invitrogen) in OptiMEM (Invitrogen) with 0.35 μg/well of LRP5, HBM, or control plasmid DNA (empty vector pcDNA3.1) and either Wnt1 or Wnt3 a plasmid DNA. […] All wells were transfected with 0.025 μg/well of CMV beta-galactosidase plasmid DNA and 0.35 μg/well 16X TCF(ASyluciferase reporter DNA (developed by Ramesh Bhat, Wyeth-Ayerst (Philadelphia, Pa.)). After 4 hours of incubation, the cells were rinsed and 1 ml of fresh growth media was added to each well. The cells were cultured overnight at 34° C., followed by a wash and a change of media. Cells were cultured for an additional 18-24 hours at 37° C. Cells were then lysed with 50 μl/well of 1X lysis buffer. The extracts were assayed for beta-galactosidase activity (Galacto Reaction Buffer Diluent & Light Emission Accelerator, Tropix) using 5 μl extract+50 μl beta-galactosidase diluent and luciferase activity (Luciferase Assay Reagent, Promega) using 20 μl extract.
# [5] = target: T3, LRP5 (Homo sapiens, UniProt O75197); experiment: TCF-luciferase assay in HOB-03-CE6 cells, LRP5; format: cell-based; settings: Wnt3a, FIG. 15
# T3 construct: Site-directed mutants of LRP5 were generated in the full-length human LRP5 cDNA; expressed in transfected cells; host or cells: HOB-03-CE6 osteoblastic cells; U2OS osteosarcoma cells; HEK293
# T3 sequence (O75197 32-1615): as the sequence (O75197 32-1615 G171V) above, with V140G counted along it
# Protocol: as §1, with “DNA. Similar experiments were performed with LRP6 plasmid DNA (0.35 μg/well) or a control pEDdpc4 empty vector.” for “DNA.”
# [6] = test system: Wnt pathway; experiment: Xenopus embryo screening for duplicated body axis; format: in vivo; settings: RNA injected into ventral blastomere; LRP5 500 pg, Wnt5a 20 pg
# Excerpt: Modification of the Wnt signaling pathway can be visualized by examining the embryos for a dorsalization phenotype (duplicated body axis) after RNA injection into the ventral blastomere at the 4- or 8-cell stage. On the molecular level, phenotypes can be analyzed by looking for expression of various marker genes in stage 10.5 embryos. Such markers would include general endoderm, mesoderm, and ectoderm markers as well as a variety of tissue-specific transcripts.
# mRNA for microinjection into Xenopus embryos is generated by in vitro transcription using the CDNA constructs in the pCS2^+ vector described above as template. RNA is synthesized using the Ambion mMessage mMachine high yield capped RNA transcription kit (Cat. #1340) following the manufacturer's specifications for the Sp6 polymerase reactions. RNA products were brought up to a final volume of 50 μl in sterile, glass-distilled water and purified over Quick Spin-Columns for Radiolabelled RNA Purification G50-Sephadex (Roche, Cat. #1274015) following the manufacturer's specifications. The resulting eluate was finally extracted with phenol:chloroform:isoamyl alcohol and isopropanol precipitated using standard protocols (Sambrook et al., 1989). Final RNA volumes were approximately 50 μl. RNA concentration was determined by absorbance values at 260 nm and 280 nm. […]
molecule,measurement,setting,value
B1,growth of diploids on selective media (interaction with LRP5 LBD baits),[1],no growth was observed
B2,LRP6/Wnt1 mediated TCF-luciferase activity,"[2]; Wnt1, FIG. 14",had no effect
same,LRP6/Wnt3a mediated TCF-luciferase activity,"[2]; Wnt3a, FIG. 15",able to antagonize LRP6/Wnt3a mediated TCF-luciferase activity
same,Kd,[3],0.73 nM
same,HBM/Wnt3a mediated TCF-luciferase activity,[4],able to antagonize the TCF-luciferase activity
same,LRP5/Wnt3a mediated TCF-luciferase activity,[5],able to antagonize the TCF-luciferase activity
B3,induction of axis duplication,[6],could not induce axis duplication
